Experimental data: patent US20120316071A1 (published 2012)
Changes are numbered by the printed parent chain. Numbers in names are those of the source.

How the values were obtained:
[1] = molecular target: T1, rHuman P-Cadherin/Fc Chimera (human, UniProt P22223 108-654); experiment: ECL Multispot (MSD) assay, antigens spotted on plate, 10 nM Fab; blank of this well 184
T1 construct: Bought from R&D Systems; not shown: Fc part of a bought chimera

[2] = molecular target: T2, rHuman HGF R/c-MET/Fc Chimera (human, UniProt P08581 25-932); experiment: as above
T2 construct: Bought from R&D Systems; also called HGF R/Fc; not shown: Fc part of a bought chimera

rHuman ErbB2/Fc Chimera [3] = molecular target: T3, rHuman ErbB2/Fc Chimera (human, UniProt P04626 23-652); experiment: as above
T3 construct: Bought from R&D Systems; not shown: Fc part of a bought chimera

[4] = molecular target: T4, rHuman IGF-1 sR (insulin-like growth factor-1 soluble receptor) (human, UniProt P08069 31-932); experiment: as above
T4 construct: Bought soluble receptor

rHuman EGF R/Fc Chimera [5] = molecular target: T5, rHuman EGF R/Fc Chimera (human, UniProt P00533 25-645); experiment: as above
T5 construct: Bought from R&D Systems; not shown: Fc part of a bought chimera

[6] = molecular target: T6, Recombinant Human DLL4 (delta-like protein 4) (human, UniProt Q9NR61 27-524); experiment: as above
T6 construct: Bought recombinant protein; also called rHuman DLL4

[7] = molecular target: T1, rHuman P-Cadherin/Fc Chimera; experiment: ECL Multispot (MSD) assay, antigens spotted on plate, 10 nM Fab; blank of this well 254
[8] = molecular target: T2, rHuman HGF R/c-MET/Fc Chimera; experiment: as above
rHuman ErbB2/Fc Chimera [9] = molecular target: T3, rHuman ErbB2/Fc Chimera; experiment: as above
[10] = molecular target: T4, rHuman IGF-1 sR (insulin-like growth …); experiment: as above
rHuman EGF R/Fc Chimera [11] = molecular target: T5, rHuman EGF R/Fc Chimera; experiment: as above
[12] = molecular target: T6, Recombinant Human DLL4 (delta-like …); experiment: as above
[13] = molecular target: T7, rHuman ErbB2/Fc Chimera, CF (R&D Systems Cat#1129-ER) (human, UniProt P04626 23-652); experiment: ECL multispot (MSD), antigen spotted; blank spot of this well 271
T7 construct: Bought protein; also called human epidermal growth factor 2 receptor

[14] = molecular target: T8, rHuman P-Cadherin/Fc Chimera, CF (R&D Systems Cat#861-PC) (human, UniProt P22223 108-654); experiment: as above
T8 construct: Bought protein

[15] = molecular target: T9, rHuman Notch-1/Fc Chimera, CF (R&D Systems Cat#3647-TK) (human, UniProt P46531 19-526); experiment: as above
T9 construct: Bought protein

[16] = molecular target: T10, rHuman HGF R/c-MET/Fc Chimera, CF (R&D Systems Cat#358-MT/CF) (human, UniProt P08581 25-932); experiment: as above
T10 construct: Bought protein; also called HGF R/Fc; hepatocyte growth factor receptor

[17] = molecular target: T11, rHuman EGF R/Fc Chimera, CF (R&D Systems Cat#344-ER) (human, UniProt P00533 25-645); experiment: as above
T11 construct: Bought protein; also called epidermal growth factor receptor

[18] = molecular target: T12, rHuman Erythropoietin R/Fc Chimera, CF (R&D Systems Cat#963-ER) (human, UniProt P19235 25-250); experiment: as above
T12 construct: Bought protein; also called EPO R; EPO R/Fc
T12 sequence (looked up): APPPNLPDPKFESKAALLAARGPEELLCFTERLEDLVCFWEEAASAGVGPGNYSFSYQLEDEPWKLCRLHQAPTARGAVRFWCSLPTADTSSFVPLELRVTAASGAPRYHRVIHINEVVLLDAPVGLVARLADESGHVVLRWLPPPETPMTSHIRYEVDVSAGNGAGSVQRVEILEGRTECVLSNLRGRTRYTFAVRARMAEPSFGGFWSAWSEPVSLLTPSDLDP

[19] = molecular target: T13, Recombinant Human DLL4 (R&D Systems Cat#1506-D4/CF) (human, UniProt Q9NR61 27-524); experiment: as above
T13 construct: Bought recombinant protein; also called delta-like protein 4; rHuman DLL4

[20] = molecular target: T14, rHuman IGF-1 sR, CF (R&D Systems Cat#391-GR) (human, UniProt P08069 31-932); experiment: as above
T14 construct: Bought soluble receptor; also called insulin-like growth factor-1 soluble receptor

[21] = molecular target: T15, rHuman CD44/Fc Chimera, CF (R&D Systems Cat#3660-CD) (human, UniProt P16070 21-220); experiment: as above
T15 construct: Bought protein

[22] = molecular target: T7, rHuman ErbB2/Fc Chimera, CF (R&D …); experiment: ECL multispot (MSD), antigen spotted; blank spot of this well 209
[23] = molecular target: T8, rHuman P-Cadherin/Fc Chimera, CF (R&D …); experiment: as above
[24] = molecular target: T9, rHuman Notch-1/Fc Chimera, CF (R&D …); experiment: as above
[25] = molecular target: T10, rHuman HGF R/c-MET/Fc Chimera, CF (R&D …); experiment: as above
[26] = molecular target: T11, rHuman EGF R/Fc Chimera, CF (R&D …); experiment: as above
[27] = molecular target: T12, rHuman Erythropoietin R/Fc Chimera, CF …; experiment: as above
[28] = molecular target: T14, rHuman IGF-1 sR, CF (R&D Systems …); experiment: as above
[29] = molecular target: T15, rHuman CD44/Fc Chimera, CF (R&D Systems …); experiment: as above
[30] = molecular target: T7, rHuman ErbB2/Fc Chimera, CF (R&D …); experiment: ECL multispot (MSD), antigen spotted; blank spot of this well 273
[31] = molecular target: T8, rHuman P-Cadherin/Fc Chimera, CF (R&D …); experiment: as above
[32] = molecular target: T9, rHuman Notch-1/Fc Chimera, CF (R&D …); experiment: as above
[33] = molecular target: T10, rHuman HGF R/c-MET/Fc Chimera, CF (R&D …); experiment: as above
[34] = molecular target: T11, rHuman EGF R/Fc Chimera, CF (R&D …); experiment: as above
[35] = molecular target: T12, rHuman Erythropoietin R/Fc Chimera, CF …; experiment: as above
[36] = molecular target: T14, rHuman IGF-1 sR, CF (R&D Systems …); experiment: as above
[37] = molecular target: T15, rHuman CD44/Fc Chimera, CF (R&D Systems …); experiment: as above
Recombinant Human DLL4 [38] = molecular target: T16, Recombinant Human DLL4 (human, UniProt Q9NR61 27-524); experiment: ECL (MSD) multispot binding assay, DLL4 signal over blank spot
T16 construct: also called delta-like protein 4; rHuman DLL4

Recombinant Human DLL4 [39] = molecular target: T16, Recombinant Human DLL4; experiment: ECL (MSD) multispot binding assay, DLL4 spotted on plate, Fab in solution

T10 sequence (P08581 25-932, change not shown): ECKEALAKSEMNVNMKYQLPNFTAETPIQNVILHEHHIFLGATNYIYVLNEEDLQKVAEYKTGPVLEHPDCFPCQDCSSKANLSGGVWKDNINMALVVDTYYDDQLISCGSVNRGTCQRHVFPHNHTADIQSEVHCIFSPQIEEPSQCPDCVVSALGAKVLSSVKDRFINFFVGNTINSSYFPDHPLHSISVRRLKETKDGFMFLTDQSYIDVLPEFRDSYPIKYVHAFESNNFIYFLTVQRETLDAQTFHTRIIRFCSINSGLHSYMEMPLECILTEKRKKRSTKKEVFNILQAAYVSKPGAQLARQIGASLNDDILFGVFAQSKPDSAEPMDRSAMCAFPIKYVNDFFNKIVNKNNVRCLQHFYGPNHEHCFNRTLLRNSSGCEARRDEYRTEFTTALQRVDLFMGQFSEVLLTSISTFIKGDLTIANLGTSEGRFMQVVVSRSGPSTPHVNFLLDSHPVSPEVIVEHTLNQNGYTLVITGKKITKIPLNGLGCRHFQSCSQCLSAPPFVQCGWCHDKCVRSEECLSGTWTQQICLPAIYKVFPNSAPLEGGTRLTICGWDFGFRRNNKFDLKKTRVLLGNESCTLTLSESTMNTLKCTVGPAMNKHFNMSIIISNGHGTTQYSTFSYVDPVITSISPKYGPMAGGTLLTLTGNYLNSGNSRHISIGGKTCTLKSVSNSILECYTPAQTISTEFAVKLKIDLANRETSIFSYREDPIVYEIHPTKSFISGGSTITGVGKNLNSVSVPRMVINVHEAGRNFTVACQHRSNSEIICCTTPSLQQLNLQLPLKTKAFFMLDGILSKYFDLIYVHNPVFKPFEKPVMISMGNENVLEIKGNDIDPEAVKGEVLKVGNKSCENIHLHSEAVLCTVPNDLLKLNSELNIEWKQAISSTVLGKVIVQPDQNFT
T2 sequence (P08581 25-932, change not shown): as above

B1: Fab VH1-46_IGHD6-6*01_IGHJ1*01 S102A/S103P/S104F/H111F & L6_IGKJ1*01 (Fab, V domains shown)
VH: QVQLVQSGAEVKKPGASVKVSCKASGYTFTSYYMHWVRQAPGQGLEWMGIINPSGGSTSYAQKFQGRVTMTRDTSTSTVYMELSSLRSEDTAVYYCAREEYAPFSAEYFQFWGQGTLVTVSS
VL: not shown
notes: Fab made in E. coli; VH was cloned into Plasmid A (CH1, His6 and Flag tags) and VL into Plasmid C (kappa constant region); also called APFF; H:APFF & L:wt
B1 gave an ECL signal [1] of 240, an ECL signal [2] of 263 and an ECL signal (rHuman ErbB2/Fc Chimera [3]) of 322. For the same binder, the ECL signal [4] was 173, the ECL signal (rHuman EGF R/Fc Chimera [5]) was 409 and the ECL signal [6] was 132000. The ECL signal [7] was 138, the ECL signal [8] was 176 and the ECL signal (rHuman ErbB2/Fc Chimera [9]) was 351. For the same binder, the ECL signal [10] was 306, the ECL signal (rHuman EGF R/Fc Chimera [11]) was 209 and the ECL signal [12] was 148000.

B2: Fab VH1-46_IGHD6-6*01_IGHJ1*01 S102A/S103P/S104F (APF) & L6_IGKJ1*01 R91P (Fab, V domains shown)
VH: B1 VH with F111H
VL: EIVLTQSPATLSLSPGERATLSCRASQSVSSYLAWYQQKPGQAPRLLIYDASNRATGIPARFSGSGSGTDFTLTISSLEPEDFAVYYCQQPSNWPPWTFGQGTKVEIKR
notes: Fab made in E. coli: VH cloned into Plasmid A (CH1, His6 and Flag tags), VL into Plasmid C (kappa CL); also called APF / R91P
B2 showed an ECL signal [13] of 333, an ECL signal [14] of 296 and an ECL signal [15] of 228. It also gave an ECL signal [16] of 273, an ECL signal [17] of 216 and an ECL signal [18] of 275. It also gave an ECL signal [19] of 1280, an ECL signal [20] of 199 and an ECL signal [21] of 252.

B3: Fab VH1-46_IGHD6-6*01_IGHJ1*01 S102A/S103P/S104F (APF) & L6_IGKJ1*01 R91G (Fab, V domains shown)
VH: B1 VH with F111H
VL: B2 VL with P91G
notes: Fab made in E. coli: VH cloned into Plasmid A (CH1, His6 and Flag tags), VL into Plasmid C (kappa CL); also called APF / R91G
B3 gave an ECL signal [22] of 236, an ECL signal [23] of 235 and an ECL signal [24] of 170. It also gave an ECL signal [25] of 239, an ECL signal [26] of 271 and an ECL signal [27] of 306. For the same binder, the ECL signal [28] was 260 and the ECL signal [29] was 163.

B4: Fab VH1-46_IGHD6-6*01_IGHJ1*01 S102A/S103P/S104F (APF) & L6_IGKJ1*01 R91L (Fab, V domains shown)
VH: B1 VH with F111H
VL: B2 VL with P91L
notes: Fab made in E. coli: VH cloned into Plasmid A (CH1, His6 and Flag tags), VL into Plasmid C (kappa CL); also called APF / R91L
B4 showed an ECL signal [30] of 526, an ECL signal [31] of 437 and an ECL signal [32] of 383. For the same binder, the ECL signal [33] was 255, the ECL signal [34] was 367 and the ECL signal [35] was 459. The ECL signal [36] was 382 and the ECL signal [37] was 236.

B5: Fab VH1-46_IGHD6-6*01_IGHJ1*01 S102A/S103P/S104F/H111F (APFF) & L6_IGKJ1*01 S92T (Fab, V domains shown)
VH: B1 VH
VL: B2 VL with P91R, S92T
notes: Fab from E. coli; VH in Plasmid A (CH1, His6 and Flag tags), VL in Plasmid C (kappa CL); also called APFF & S92T
With B5 the Signal/Blank (Recombinant Human DLL4 [38]) was 194 and the “ECL signal” value (Recombinant Human DLL4 [39]) was 54100.
